In this test the target is SARS-CoV S-6P (SARS-CoV, strain , UniProt P59594, stabilised). Nature of the test: SPR. A general note: In SPR one partner is held on a chip, and binding of the other changes the refractive index at the surface.

B1: 6D6 (antibody, V domains shown)
VH: EVQLQQSGAELVKPGASVKLSCTTSGFNIIDTYMHWVKQRPEEGLEWIGGIDPVNGNSEYDPKFQDKATITADTSSNTAYLHLSRLTSEDTAVYYCASAHYYGSSSSFPYWGQGTDLVTVS
VL: DIVMTQSQKFMSTSVGDRVSVTCKASQNVGTHVAWYQQKPGQSPKALIYSASYRYSGVPDRFTGSGVGTDFTLTITNVQSEDLAEYFCQQYNSYFTFGSGTKLEIK
For B1, the binding result is recorded as “binds”.

The record behind these values is publication PMC11251093 (iScience, 2024).
